The numbers were not newly measured in paper PMC4927088, which cites them from elsewhere.

The target of this series is LPL (UniProt P11151).
UniProt P11151, sequence (P11151 29-478): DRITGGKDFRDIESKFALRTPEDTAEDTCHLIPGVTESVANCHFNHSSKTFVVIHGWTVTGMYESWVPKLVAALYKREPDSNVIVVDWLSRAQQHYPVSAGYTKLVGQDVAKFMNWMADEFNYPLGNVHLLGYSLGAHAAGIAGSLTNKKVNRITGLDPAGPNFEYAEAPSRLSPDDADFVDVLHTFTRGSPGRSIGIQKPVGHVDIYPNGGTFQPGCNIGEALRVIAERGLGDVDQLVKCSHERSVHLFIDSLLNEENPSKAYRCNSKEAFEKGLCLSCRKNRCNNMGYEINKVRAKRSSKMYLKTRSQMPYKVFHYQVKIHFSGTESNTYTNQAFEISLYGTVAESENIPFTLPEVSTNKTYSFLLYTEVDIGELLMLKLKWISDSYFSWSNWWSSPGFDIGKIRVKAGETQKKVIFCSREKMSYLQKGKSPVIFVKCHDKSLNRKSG

Turning to GPIHBP1 (from UniProt Q8IV16), the Kd is 25 nM.
